Laboratory results as given in patent US5493008A, “Two non-contiguous regions contribute to nidogen binding to a single EGF-like motif of the laminin γ1 chain” (The University Of Virginia Patent Foundation, priority 1994, dated 1996).
Like-named read-outs stand apart in the source and are kept apart here. Values belong to the molecule of their own block, whether it stands above or below them. Where a SMILES comes first, the peptide text is derived from it. Where no end group is shown, it is not given here.

Columns and labels:
[1] = molecular target: T1, recombinant nidogen (Mus musculus (Mouse)) (UniProt P10493); test: radioligand competition assay: inhibitor varied, 0.2 nM recombinant nidogen, 125I-laminin fragment P1
T1 sequence: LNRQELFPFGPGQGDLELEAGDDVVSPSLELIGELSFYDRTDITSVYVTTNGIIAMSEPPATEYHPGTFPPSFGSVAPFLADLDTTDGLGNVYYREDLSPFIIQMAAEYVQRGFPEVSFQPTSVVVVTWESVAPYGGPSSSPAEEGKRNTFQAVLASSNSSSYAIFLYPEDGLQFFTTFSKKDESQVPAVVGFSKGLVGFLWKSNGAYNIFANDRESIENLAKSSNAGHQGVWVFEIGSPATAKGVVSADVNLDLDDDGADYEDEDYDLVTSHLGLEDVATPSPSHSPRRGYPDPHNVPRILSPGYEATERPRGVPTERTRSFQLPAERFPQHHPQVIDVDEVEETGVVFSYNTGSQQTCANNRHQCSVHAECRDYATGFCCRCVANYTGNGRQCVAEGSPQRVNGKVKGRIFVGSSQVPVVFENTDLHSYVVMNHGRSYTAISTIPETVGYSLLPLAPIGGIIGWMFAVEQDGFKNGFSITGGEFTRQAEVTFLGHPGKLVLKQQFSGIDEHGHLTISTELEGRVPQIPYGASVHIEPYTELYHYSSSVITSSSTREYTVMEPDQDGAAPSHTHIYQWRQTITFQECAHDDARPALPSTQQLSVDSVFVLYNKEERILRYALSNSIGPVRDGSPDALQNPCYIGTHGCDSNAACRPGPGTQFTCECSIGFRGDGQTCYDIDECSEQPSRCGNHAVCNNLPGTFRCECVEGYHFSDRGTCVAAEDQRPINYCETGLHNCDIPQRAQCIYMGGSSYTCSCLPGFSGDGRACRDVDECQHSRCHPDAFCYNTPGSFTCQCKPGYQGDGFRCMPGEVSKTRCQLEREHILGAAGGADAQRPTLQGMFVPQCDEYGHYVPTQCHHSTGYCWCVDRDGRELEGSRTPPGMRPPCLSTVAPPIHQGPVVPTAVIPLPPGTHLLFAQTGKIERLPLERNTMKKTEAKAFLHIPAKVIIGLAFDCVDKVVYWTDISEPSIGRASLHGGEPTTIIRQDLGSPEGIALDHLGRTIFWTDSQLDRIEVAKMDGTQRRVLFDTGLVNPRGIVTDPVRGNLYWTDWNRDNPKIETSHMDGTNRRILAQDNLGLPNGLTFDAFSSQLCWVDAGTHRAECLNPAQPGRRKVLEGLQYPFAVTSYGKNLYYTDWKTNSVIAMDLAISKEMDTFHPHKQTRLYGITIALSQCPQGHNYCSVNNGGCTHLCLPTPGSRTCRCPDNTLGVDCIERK

[2] = molecular target: T1, recombinant nidogen (Mus musculus (Mouse)); test: radioligand competition assay
[3] = molecular target: T2, nidogen (Mus musculus, UniProt P10493); test: Radioligand competition assay: inhibition of 125I-laminin fragment P1 binding to nidogen
T2 sequence (P10493 29-1245): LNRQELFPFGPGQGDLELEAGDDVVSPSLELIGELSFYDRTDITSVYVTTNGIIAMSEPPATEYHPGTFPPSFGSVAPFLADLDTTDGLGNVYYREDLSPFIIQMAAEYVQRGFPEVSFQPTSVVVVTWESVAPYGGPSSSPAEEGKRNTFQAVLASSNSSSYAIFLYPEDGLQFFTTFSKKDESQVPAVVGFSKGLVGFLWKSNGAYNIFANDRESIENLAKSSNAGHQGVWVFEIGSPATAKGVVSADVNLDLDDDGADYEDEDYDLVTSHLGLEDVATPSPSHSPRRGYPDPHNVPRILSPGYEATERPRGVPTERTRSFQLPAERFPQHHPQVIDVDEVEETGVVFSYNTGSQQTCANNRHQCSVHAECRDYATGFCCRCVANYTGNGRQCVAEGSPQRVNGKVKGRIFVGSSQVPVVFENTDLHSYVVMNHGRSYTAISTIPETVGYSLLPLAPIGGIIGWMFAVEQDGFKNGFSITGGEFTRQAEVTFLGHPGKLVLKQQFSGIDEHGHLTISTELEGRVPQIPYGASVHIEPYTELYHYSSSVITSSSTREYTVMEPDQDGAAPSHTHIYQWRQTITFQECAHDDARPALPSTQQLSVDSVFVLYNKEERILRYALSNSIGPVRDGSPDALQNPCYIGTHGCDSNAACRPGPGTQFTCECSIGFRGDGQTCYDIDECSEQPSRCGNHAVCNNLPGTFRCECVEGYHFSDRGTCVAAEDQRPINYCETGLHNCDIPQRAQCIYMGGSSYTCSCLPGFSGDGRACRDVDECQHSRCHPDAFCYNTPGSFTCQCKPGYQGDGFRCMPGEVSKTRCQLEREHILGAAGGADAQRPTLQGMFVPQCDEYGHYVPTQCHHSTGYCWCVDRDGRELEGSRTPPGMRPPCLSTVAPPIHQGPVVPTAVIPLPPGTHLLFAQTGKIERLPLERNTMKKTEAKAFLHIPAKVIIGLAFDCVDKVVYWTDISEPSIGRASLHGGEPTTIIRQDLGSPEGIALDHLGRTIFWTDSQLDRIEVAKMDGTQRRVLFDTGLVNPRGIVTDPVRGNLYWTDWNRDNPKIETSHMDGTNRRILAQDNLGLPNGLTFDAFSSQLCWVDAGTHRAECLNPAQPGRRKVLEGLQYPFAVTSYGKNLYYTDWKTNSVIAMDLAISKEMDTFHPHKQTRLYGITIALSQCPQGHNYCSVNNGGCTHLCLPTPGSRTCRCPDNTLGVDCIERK
Description: A radioligand competition assay was used for measurement of relative binding affinities (Mann K. et al. (1988), Eur. J. Biochem., 178, 71-80; Fox, J. W. et al. (1991), EMBO J., 10, 3137-3146). A fixed concentration of recombinant nidogen (0.2 nM) was incubated overnight at 4° C. with inhibitors at varying concentrations, followed by the addition of ^125 I-labeled laminin fragment P1 (0.01 nM; 10,000-20,000 c.p.m.) for the same incubation period. Bound and non-bound fragment P1 was then separated by antibodies against nidogen. Competitor concentrations causing 50% inhibition (IC50) were determined from dose-response profiles. […] IC50 values compared from different assays were normalized to a single fragment P1 value.

[4] = molecular target: T3, recombinant nidogen (Mus musculus (Mouse), UniProt P10493); test: radioligand competition assay: inhibitor varied, 0.2 nM recombinant nidogen, 125I-laminin fragment P1
T3 sequence: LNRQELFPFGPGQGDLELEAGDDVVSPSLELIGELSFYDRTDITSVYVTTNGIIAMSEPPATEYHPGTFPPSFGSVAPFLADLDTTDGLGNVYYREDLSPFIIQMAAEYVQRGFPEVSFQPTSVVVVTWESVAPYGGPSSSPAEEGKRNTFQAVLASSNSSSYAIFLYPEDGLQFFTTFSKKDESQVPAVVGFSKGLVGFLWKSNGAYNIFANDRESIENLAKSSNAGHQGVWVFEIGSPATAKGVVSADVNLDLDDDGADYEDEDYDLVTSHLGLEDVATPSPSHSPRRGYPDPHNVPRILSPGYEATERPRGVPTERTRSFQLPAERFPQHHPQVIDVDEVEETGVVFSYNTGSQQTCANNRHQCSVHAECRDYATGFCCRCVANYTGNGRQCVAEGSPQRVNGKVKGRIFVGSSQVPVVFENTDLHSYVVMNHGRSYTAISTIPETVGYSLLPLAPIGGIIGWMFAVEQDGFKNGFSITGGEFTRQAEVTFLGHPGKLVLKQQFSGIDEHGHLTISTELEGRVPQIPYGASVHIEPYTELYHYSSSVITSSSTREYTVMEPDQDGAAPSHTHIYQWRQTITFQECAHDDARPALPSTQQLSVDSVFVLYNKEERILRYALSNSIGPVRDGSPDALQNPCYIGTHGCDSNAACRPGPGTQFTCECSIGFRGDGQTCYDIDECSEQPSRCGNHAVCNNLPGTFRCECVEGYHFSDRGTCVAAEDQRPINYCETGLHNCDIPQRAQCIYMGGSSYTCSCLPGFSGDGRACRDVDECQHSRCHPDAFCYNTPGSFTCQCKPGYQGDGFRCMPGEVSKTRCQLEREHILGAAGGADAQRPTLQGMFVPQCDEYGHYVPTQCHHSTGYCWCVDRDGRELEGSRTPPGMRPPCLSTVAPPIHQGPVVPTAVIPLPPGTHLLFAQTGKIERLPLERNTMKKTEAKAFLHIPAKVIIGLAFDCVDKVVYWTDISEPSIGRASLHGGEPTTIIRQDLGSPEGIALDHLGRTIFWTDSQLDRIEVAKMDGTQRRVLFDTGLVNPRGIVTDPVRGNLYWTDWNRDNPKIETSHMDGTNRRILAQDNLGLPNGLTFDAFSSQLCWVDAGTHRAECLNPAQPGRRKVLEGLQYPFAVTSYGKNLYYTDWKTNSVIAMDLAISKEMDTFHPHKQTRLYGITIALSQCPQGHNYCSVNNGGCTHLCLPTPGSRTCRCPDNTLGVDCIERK
Description: (§1) A radioligand competition assay was used for measurement of relative binding affinities (Mann K. et al. (1988), Eur. J. Biochem., 178, 71–80; Fox, J. W. et al. (1991), EMBO J., 10, 3137–3146). A fixed concentration of recombinant nidogen (0.2 nM) was incubated overnight at 4° C. with inhibitors at varying concentrations, followed by the addition of ^125I-labeled laminin fragment P1 (0.01 nM; 10,000–20,000 c.p.m.) for the same incubation period. Bound and non-bound fragment P1 was then separated by antibodies against nidogen.

[5] = molecular target: T3, recombinant nidogen; test: as above; remark: listed apart in the source
Description: as §1

[6] = molecular target: T3, recombinant nidogen; test: as above; remark: listed apart in the source
Description: as §1

Molecule: IOPNAVGN (S, 799-806) (peptide)
- fold loss in activity [2]: 2 fold

Molecule: synthetic loop a,b, non-oxidized (792-815) (peptide)
- IC50 [1]: 400 nM
- fold higher IC50 than fragment P1 [2]: 5000 fold

Molecule: CC[C@H](C)[C@@H]1NC(=O)[C@@H](NC(=O)[C@H](CCCCN)NC(=O)[C@H](CC(C)C)NC(=O)[C@@H]2CSSC[C@H](NC(=O)[C@@H](N)CCC(N)=O)C(=O)N[C@@H](CC(N)=O)C(=O)N[C@@H](CC(=O)O)C(=O)N[C@@H](CC(N)=O)C(=O)N[C@@H]([C@@H](C)CC)C(=O)N[C@@H](CC(=O)O)C(=O)N3CCC[C@H]3C(=O)N[C@@H](CC(N)=O)C(=O)N[C@@H](C)C(=O)N[C@@H](C(C)C)C(=O)NCC(=O)N2)CSSC[C@@H](C(=O)N[C@@H](CC(=O)O)C(=O)O)NC(=O)[C@H](Cc2ccc(O)cc2)NC(=O)[C@H](Cc2ccccc2)NC(=O)CNC(=O)[C@H](C)NC(=O)[C@H]([C@@H](C)O)NC(=O)[C@H](CC(N)=O)NC(=O)[C@H](Cc2ccc(O)cc2)NC1=O [loop a,c, oxidized, QCNDNIDPNAVGCLKC1YNTAGFYCD] (HELM PEPTIDE1{Q.C.N.D.N.I.D.P.N.A.V.G.C.L.K.C.I.Y.N.T.A.G.F.Y.C.D}$PEPTIDE1,PEPTIDE1,2:R3-13:R3|PEPTIDE1,PEPTIDE1,16:R3-25:R3$$$V2.0; N-terminus and C-terminus assumed)
- IC50 higher / less active than fragment P1 ([3]; relative to laminin fragment P1): 300 fold
- higher inhibitory activity compared with loop a,b ([3]; relative to synthetic loop a,b peptide): 20 fold

Molecule: NVDPNAS
- binding result [4]: no binding (tested: >160,000 nM)

Molecule: NVDPSAV
- binding result [4]: no binding (tested: >180,000 nM)

B1: γ1III4 (other)
chain: PCQCNDNIDPNAVGNCNRLTGECLKCIYNTAGFYCDRCKEGFFGNPLAPNPADKCK
modifications: disulfide (positions not given here); not fully specified (bridges); also: four disulfide-bonded loops, pairing not given here
- IC50 [6]: 0.05 nM

Continued, values first:

- IC50 [1]: > 3200 nM
Molecule: γ1III3-5Δ4 (from UniProt P02468)

- IC50 [1]: 500 nM
Molecule: T1, 792-809 (peptide)

- IC50 [1]: 1100 nM
Molecule: γ1III3ab4cd (from UniProt P02468)

- IC50 [1]: 80 nM
- fold higher activity than synthetic oxidized loop a,b [2]: 3 fold
- further fold decrease in activity against modification of Tyr819 [2]: 30 fold
Molecule: γ1III4ab3cd (from UniProt P02468)

- IC50 ([3]; Table III, amino acid replacements in heptapeptide NIDPNAV, read-out: IC50 (inhibitory capability for laminin-nidogen binding)): > 290000 nM
Molecule: NVDPSAS [NVDPSAS]

- IC50 [5]: 900 nM
- IC50 [4]: 800 nM
Molecule: NIDPNAV [heptapeptide NIDPNAV (S, 798-804)]

- IC50 [6]: 0.06 nM
B2: γ1III4Y825-A (other)
chain: PCQCNDNIDPNAVGNCNRLTGECLKCIYNTAGFACDRCKEGFFGNPLAPNPADKCK
